The source of these data is patent US20230192897A1 (NUMAB THERAPEUTICS, published 2023).

“And” between values parts separate entries of the source, which are not always exact repeats. Equal entries are not always repeated.

One assay has as its target T1, Fc tagged human CD137 (human, UniProt Q07011 24-186).
T1 construct: also called CD137-Fc chimeric protein
The assay is described as follows: SPR. The protocol: (§1) Affinity to PDL1 of the different species was determined by SPR measurements using a Biacore T200 device (GE Healthcare). An antibody specific for the Fc region of human IgGs was immobilized on a sensor chip (CM5 sensor chip, GE Healthcare) by amine-coupling. For all formats, with the exception of the Fc containing Morrison formats, PDL1-Fc chimeric protein from different species were captured by the immobilized antibody.
(§2) Three-fold serial dilutions of the molecules specific for PDL1 (0.12-90 nM) were injected into the flow cells for three minutes and dissociation was monitored for 10 minutes. After each injection cycle, surfaces were regenerated with one injection of a 3 M MgCl₂ solution. The apparent dissociation (kd) and association (kₐ) rate constants and the apparent dissociation equilibrium constant (KD) were calculated using one-to-one Langmuir binding model. Affinity to CD137 of the different species was determined using the identical setup as for PDL1 with the exception that CD137-Fc chimeric protein from different species were captured by the immobilized antibody.
On the technique in general: Surface plasmon resonance follows binding to a sensor surface in real time, without labels.

Another assay concerns the target T2, Fc tagged human PDL1 (human, UniProt Q9NZQ7 19-239).
T2 construct: Bought (Sino Biological, cat. 10084-H02H); captured on the SPR chip; also called PDL1-Fc chimeric protein
Put plainly: SPR. The protocol:
as §1, §2

The target of assay [1] is T3, biotinylated human PDL1 (human, UniProt Q9NZQ7 19-238, limits assumed, biotinylated).
T3 construct: also called biotinylated PDL1
Put plainly: competition ELISA B7.1/PDL1. The protocol:
Plates were blocked for 1 hour at room temperature by adding 300 μl of PBS with 1% BSA and 0.2% tween (dilution buffer) to each well. […] The mixtures were pre-incubated for 1 hour at room temperature under gentle agitation on a rotating mixer (21 rpm) and added to the microplates after 3 wash cycles with 450 μl wash buffer per well. Plates were incubated for 1.5 hours at room temperature under gentle agitation, then 10 ng/ml streptavidin-polyHRP40 was added to each microplate well after three washes with 450 μl of wash buffer per well. After 1 h incubation at RT, plates were washed three times with 450 μl wash buffer and TMB substrate solution was added. The enzymatic reaction was stopped after 6 minutes by addition of 1 M HCl and absorbance was measured at 450 nm using 690 nm as a reference wavelength. For calculation of IC₅₀ values, a four-parameter logistic (4PL) curve fit was performed in Graph Pad Prism using reference subtracted values.
(In an ELISA, binding on a coated surface is turned into a signal by an enzyme label.)

The target of assay [2] is CD137 on Jurkat NFkB reporter cells (human, UniProt Q07011 24-255). The assay is described as follows: cell-based or functional assay.
Another assay has as its target human PDL1 on cells (human, UniProt Q9NZQ7 19-290). The assay is described as follows: cell-based or functional assay.
Assay [3] addresses T3, biotinylated human PDL1. Put plainly: competition ELISA PD-1/PDL1. The protocol:
Plates were blocked for 1 hour at room temperature by adding 300 μl of PBS with i%BSA and 0.2% tween (dilution buffer) to each well. Inhibitors were serially diluted in 3-fold steps to final concentrations ranging from 300 to 0.005 ng/ml in dilution buffer containing 1 ng/ml biotinylated human PDL1. The mixtures were pre-incubated for 1 hour at room temperature under gentle agitation on a rotating mixer (21 rpm) and added to the microplates after 3 wash cycles with 450 μl wash buffer per well. Plates were incubated for 1.5 hours at room temperature under gentle agitation, then 10 ng/ml streptavidin-polyHRP40 was added to each microplate well after three washes with 450 μl of wash buffer per well. After 1 h incubation at RT, plates were washed three times with 450 μl wash buffer and TMB substrate solution was added. The enzymatic reaction was stopped after 6 minutes by addition of 1 M HCl and absorbance was measured at 450 nm using 690 nm as a reference wavelength. For calculation of IC₅₀ values, a four-parameter logistic (4PL) curve fit was performed in Graph Pad Prism using reference subtracted values.

B1: PRO1352 (scFv)
scFv: DIQMTQSPSSLSASVGDRVTITCQASQSINNVLAWYQQKPGKAPKLLIYRASTLASGVPSRFSGSGSGTDFTLTISSLQPEDFATYYCQSSYGNYGDFGCGTKVTVLGGGGGSGGGGSGGGGSGGGGSEVQLVESGGGLVQPGGSLRLSCAASGFSFSNSYWICWVRQAPGKCLEWIGCTFVGSSDSTYYANWAKGRFTISRDNSKNTVYLQMNSLRAEDTAVYYCARHPSDAVYGYANNLWGQGTLVTVSS
notes: also called scFv of 38-02-A04 sc13
Take B1: the Kd (in general, the concentration at which binding is half-saturated) with Fc tagged human CD137 was found to be 1.47 nM.

B2: PRO1392 (scFv)
scFv: DIQMTQSPSSLSASVGDRVTITCQASQSINDYLAWYQQKPGKAPKLLIYKASTLASGVPSRFSGSGSGTDFTLTISSLQPEDFATYYCQQGYIITDIDNVFGTGTKVTVLGGGGGSGGGGSGGGGSGGGGSQVQLQESGPGLVKPSETLSLTCKASGFSFSSGYDMCWVRQPPGKGLEWIACVVAGSVDITYYASWAKGRVTISKDSSKNQVSLKLSSVTAADTAVYYCARKDAYSDAFNLWGQGTLVTVSS
notes: also called scFv of 33-03-G02 sc18
On to B2, for which, in the assay with Fc tagged human PDL1, the Kd worked out at 0.00994 nM.

B3: PRO1183 (scFv)
scFv: DFQLTQSPSSLSASVGDRVTITCQASQSINDYLAWYQQKPGKSPKLLIYKASTLASGVPSRFSGSGSGTDFTLTISSLQPEDFATYYCQQGYIITDIDNVFGTGTKVTVLGGGGGSGGGGSGGGGSGGGGSQSQLQESGPGLVKPSETLSLTCKASGFSFSSGYDMCWVRQPPGKGLEWIACVVAGSVDITYYASWAKGRVTISKDSSKNQVSLKLSSVTAADTAVYFCARKDAYSDAFNLWGQGTLVTVSS
notes: also called scFv of 33 03-G02 sc03
Regarding B3, the dissociation constant (Kd) with Fc tagged human PDL1 was less than 0.00209 nM.

B4: PRO908 (scFv)
scFv: DIQMTQSPSSLSASVGDRVTITCQASQSIGTYLAWYQQKPGKAPKLLIYRAFILASGVPSRFSGSGSGTDFTLTISSLQPEDFATYYCQSNFYSDSTTIGPNAFGTGTKVTVLGGGGGSGGGGSGGGGSGGGGSQVQLQESGPGLVKPSETLSLTCKVSGFSFNSDYWIYWIRQPPGKGLEWIGSIYGGSSGNTQYASWAQGRVTISVDSSKNQFSLKLSSVTAADTAVYYCARGYVDYGGATDLWGQGTLVTVSS
notes: also called scFv of 37-20-B03 sc01
Regarding B4, in the assay with Fc tagged human PDL1, the Kd came out at 0.00594 nM.

B5: PRO1360 (scFv)
scFv: DFQLTQSPSSLSASVGDRVTITCQASQSISNRLAWYQQKPGKPPKLLIYSASTLASGVPSRFSGSGSGTDFTLTISSLQPEDFATYYCQSTYYGNDGNAFGTGTKVTVLGGGGGSGGGGSGGGGSGGGGSESQLVESGGGLVQPGGSLRLSCAASGFSFSANYYPCWVRQAPGKGLEWIGCIYGGSSDITYDANWTKGRFTISRDNSKNTVYLQMNSLRAEDTAVYFCARSAWYSGWGGDLWGPGTLVTVSS
notes: anti-CD137 scFv; also called 38-27-A11 sc03 scFv
With B5, in the assay with Fc tagged human CD137, binding was put at a Kd of 0.234 nM.

B6: PRO1359 (scFv)
scFv: DIQMTQSPSSLSASVGDRVTITCQASQSISNRLAWYQQKPGKAPKLLIYSASTLASGVPSRFSGSGSGTDFTLTISSLQPEDFATYYCQSTYYGNDGNAFGTGTKVTVLGGGGGSGGGGSGGGGSGGGGSEVQLVESGGGLVQPGGSLRLSCAASGFSFSANYYPCWVRQAPGKGLEWIGCIYGGSSDITYDANWTKGRFTISRDNSKNTVYLQMNSLRAEDTAVYYCARSAWYSGWGGDLWGQGTLVTVSS
notes: anti-CD137 scFv; also called 38-27-A11 sc02 scFv
On to B6, for which the dissociation constant (Kd) in the assay with Fc tagged human CD137 was 3.24 nM and 3.07 nM.

B7: PRO1482 (other)
chain: DIQMTQSPSSLSASVGDRVTITCQASQSINNVLAWYQQKPGKAPKLLIYRASTLASGVPSRFSGSGSGTDFTLTISSLQPEDFATYYCQSSYGNYGDFGCGTKVTVLGGGGGSEVQLVESGGGLVQPGGSLRLSCAASGFSFNSDYWIYWVRQAPGKGLEWIASIYGGSSGNTQYASWAQGRFTISRDNSKNTVYLQMNSLRAEDTAVYFCARGYVDYGGATDLWGQGTLVTVSSGGGGSGGGGSGGGGSGGGGSIQMTQSPASLSASVGDRVTITCQASQSIGTYLAWYQQKPGKPPKLLIYRAFILASGVPSRFSGSGSGTDFTLTISSLQPEDFATYYCQSNFYSDSTTIGPNAFGTGTKVTVLGGGGGSEVQLVESGGGLVQPGGSLRLSCAASGFSFSNSYWICWVRQAPGKCLEWIGCTFVGSSDSTYYANWAKGRFTISRDNSKNTVYLQMNSLRAEDTAVYYCARHPSDAVYGYANNLWGQGTLVTVSSGGGGSGGGGSIQMTQSPSSLSASVGDRVTITCQSSESVYSNNQLSWYQQKPGQPPKLLIYDASDLASGVPSRFSGSGSGTDFTLTISSLQPEDFATYYCAGGFSSSSDTAFGGGTKLTVLGGGGGSGGGGSGGGGSGGGGSEVQLVESGGGLVQPGGSLRLSCAASGFSLSSNAMGWVRQAPGKGLEYIGIISVGGFTYYASWAKGRFTISRDNSKNTVYLQMNSLRAEDTATYFCARDRHGGDSSGAFYLWGQGTLVTVSS
notes: trispecific scDb-scFv; also called 37-20-B03 sc09.1 scDb-i/38-02-A04 sc13 scDb-o/19-01-H04 sc03 scFv
As to B7, in the assay with biotinylated human PDL1 [1], the IC50 – broadly, the concentration at which inhibition is half-maximal – came out at 8.18 ng/mL and the “rel. IC50 (IC50 avelumab/IC50 test)” value turned out to be 1.51 fold. In assay [2], the “IC50 (ng/ml) (EC50 in Table 16C), NFkB reporter, HCC827 + IFNg, 6 h, +HSA” value is 20.1 ng/mL; the “IC50 (ng/ml) (EC50 in Table 16C), NFkB reporter, HCC827 + IFNg, 24 h, +HSA” value was 7.24 ng/mL; the “rel. IC50 (PRO1186/test), 6 h” value turned out to be 0.55 fold; the “rel. IC50 (PRO1186/test), 24 h” value was determined as 1.23 fold. Moreover, in the assay with Fc tagged human CD137, the affinity, expressed as Kd, was 1.1 nM and the kon (commonly the rate constant with which the complex forms) turned out to be 320000 M⁻¹ s⁻¹. For the same molecule, in the assay with Fc tagged human PDL1, the Kd came out at 0.0098 nM and the kon stood at 3.4e+06 M⁻¹ s⁻¹. In the assay with human PDL1 on cells, the “IC50 (ng/ml), NF-AT potency assay, +HSA” value was found to be 54.8 ng/mL and the “rel. IC50 (avelumab/test), +HSA” value is 0.68 fold. Also, in the assay with biotinylated human PDL1 [3], the IC50 came out at 1.78 ng/mL and the “rel. IC50 (IC50 avelumab/IC50 test)” value was determined as 1.24 fold.

B8: PRO966 (other)
chain: DIQMTQSPSSLSASVGDRVTITCQASQSINDYLAWYQQKPGKAPKLLIYKASTLASGVPSRFSGSGSGTDFTLTISSLQPEDFATYYCQQGYIITDIDNVFGTGTKVTVLGGGGGSQVQLQESGPGLVKPSETLSLTCKVSGFSFNNDYDMCWIRQPPGKGLEWIGCIDTGDGSTYYASWAKGRVTISVDSSKNQFSLKLSSVTAADTAVYYCAREAASSSGYGMGYFDLWGQGTLVTVSSGGGGSGGGGSGGGGSGGGGSIQMTQSPSSLSASVGDRVTITCQSSQSVYDNNWLAWYQQKPGKAPKLLIYRASNLASGVPSRFSGSGSGTDFTLTISSLQPEDFATYYCQGTYLSSNWYWAFGTGTKVTVLGGGGGSQVQLQESGPGLVKPSETLSLTCKVSGFSFSSGYDMCWIRQPPGKGLEWIGCVVAGSVDITYYASWAKGRVTISVDSSKNQFSLKLSSVTAADTAVYYCARKDAYSDAFNLWGQGTLVTVSSGGGGSGGGGSIQMTQSPSSLSASVGDRVTITCQSSESVYSNNQLSWYQQKPGQPPKLLIYDASDLASGVPSRFSGSGSGTDFTLTISSLQPEDFATYYCAGGFSSSSDTAFGGGTKLTVLGGGGGSGGGGSGGGGSGGGGSEVQLVESGGGLVQPGGSLRLSCAASGFSLSSNAMGWVRQAPGKGLEYIGIISVGGFTYYASWAKGRFTISRDNSKNTVYLQMNSLRAEDTATYFCARDRHGGDSSGAFYLWGQGTLVTVSS
notes: trispecific scDb-scFv; also called PRO1052; 38-27-C05 sc01 scDb-i/33-03-G02 sc01 scDb-o/19-01-H04-sc03 scFv
Turning to B8, in the assay with Fc tagged human CD137, the affinity, expressed as Kd, was 2.2 nM and the koff (in general, the rate constant with which the complex falls apart) stood at 0.0022 s⁻¹. Moreover, the binding result with Fc tagged human PDL1 is “binds”.

B9: PRO1347 (scFv)
scFv: DIQMTQSPASLSASVGDRVTITCQASQSIGTYLAWYQQKPGKPPKLLIYRAFILASGVPSRFSGSGSGTDFTLTISSLQPEDFATYYCQSNFYSDSTTIGPNAFGTGTKVTVLGGGGGSGGGGSGGGGSGGGGSEVQLVESGGGLVQPGGSLRLSCAASGFSFNSDYWIYWVRQAPGKGLEWIASIYGGSSGNTQYASWAQGRFTISRDNSKNTVYLQMNSLRAEDTAVYFCARGYVDYGGATDLWGQGTLVTVSS
notes: also called scFv of 37-20-sc09.1; 37-20-B03-sc09
Consider B9, for which, in the assay with Fc tagged human PDL1, the Kd worked out at 0.009 nM.
